Experimental data: patent US20200283515A1 (HUMANITAS MIRASOLE S P A, published 2020)
Ends that are not written are not given here. * marks the point of attachment. Biotin = O=C1N[C@H]2[C@H](CS[C@H]2CCCCC(=O)*)N1; Ahx = NCCCCCC(=O)O

T1: biot-VSIPPRNLGY peptide (biot-Ahx-VSIPPRNLGY) (human)
T1 construct: Synthetic; captured on NeutrAvidin-coated plates; also called unique MSF decapeptide; C-terminal unique tail of MSF
T1 peptide: {Biotin-Ahx}-VSIPPRNLGY


Assays:
[1] = target: T2, human Fibronectin 1 (hFn1) (human, UniProt P02751 32-2477); test: indirect ELISA, titration of purified 1G5.3 on coated hFn1
T2 construct: Bought from Calbiochem (Cat No 341635)
Description: ELISA plates (Nunc Maxisorb immunoplates Cat. No.: 446612) were coated (0/N at 4° C.) with His-MSF (1-0.5 μg/well), supernatant from CHO-3E6 (50 μl) or hFn1 (1 μg/well), diluted in 15 mM Na carbonate buffer (pH9.6). After coating plates are washed three times with PBS+/+ and 0.05% Tween 20 (washing buffer), then non-specific interactions are blocked by incubation for 2 h at room temperature with 5% (w/v) dry milk in washing buffer. Wells were washed three times with washing buffer, then aliquots of rabbit polyclonal antiserum, supernatants from anti-MSF hybridomas or purified 1G5.3 diluted in washing buffer were added and incubated 1 h at room temperature. Anti-rabbit IgG or anti-mouse IgG labelled with horse-radish peroxidase (Cat No: GENA934 and GENA931 respectively, GE […]) were then added (1/2000 in washing buffer) and incubated 1 h at room temperature. Reaction was developed with 3,3′,5,5′-tetramethylbenzidine (TMB; 1 Step™ ULTRA TMB-ELISA, Thermo Scientific, Rockford, Ill., USA; Cat No: 34019) and stopped with 2N H₂SO₄ before reading absorbance at 450 nm with an automated plate reader (Versamax microplate reader). Baseline was obtained adding anti-MSF antibody on buffer-coated wells.
mAb 1G5.3 was purified from culture supernatant of hybridoma cells by affinity chromatography on Protein-G sepharose. […] The purified antibody was finally analyzed in ELISA. […]

[2] = target: T3, human Migration Stimulating Factor (MSF), natural protein in human cancer tissues (human, UniProt P02751 32-647); test: immunohistochemistry on paraffin sections of breast and lung cancer
T3 construct: Natural MSF as stained in formalin-fixed paraffin-embedded sections of breast and lung cancer; also called human MSF
Description: Paraffin-embedded human tissue sections were cut and kept overnight at 37° C. Sections were dewaxed in Bioclear. Antigen unmasking was performed in a Decloaker Chamber in DIVA Buffer 1× (Biocare Medical Cat No: DV2004) for 3 minutes at 125° C. and 5 minutes at 90° C.
After blocking endogenous peroxidases with Peroxidized-1 (Biocare Medical Cat No: PX968) for 15 minutes, non-specific binding sites were blocked with Background Sniper solution (Biocare Medical Cat No: BS966) for 30 minutes. Human tissue samples were then incubated 1 h with 1G5.3 (1/150-1/300) to identify MSF, or with mouse monoclonal anti-human CD68 (Dako Cat No: M0876, clone PG-M1, 780 μg/ml for 1 h) to identify macrophages. […] Then the reactions were developed with 3,3′-Diaminobenzidine tetrahydrochloride (Biocare Medical Cat No: DB801). Slides were counterstained for 3 min with haematoxylin solution.

[3] = target: T4, recombinant human Migration Stimulating Factor (rhMSF) (human, UniProt P02751 32-647); test: immunoaffinity chromatography on a column coupled to 1G5.3
T4 construct: Secreted by the CHO-3E6 clone; also called hrMSF; human recombinant MSF
Description: Recombinant human MSF was purified from the conditioned medium of CHO-3E6 by immunoaffinity chromatography (IAC). […] The 1G5.3 column was extensively washed at 5 ml/min with buffer A followed by buffer B (50 mM Tris-HCl, 500 mM NaCl, pH 7.00), and bound rhMSF was eluted with buffer C (3.5 M MgCl2) in a total volume of 4 ml. Homogeneity of the eluted protein was assessed using an analytical Superdex 200 10/300 GL gel filtration column (GE Healthcare), equilibrated and eluted at 0.5 ml/min with buffer B on an AKTA Purifier FPLC system. In addition, aliquots of conditioned medium (input), unbound material (flow through) and eluted protein (eluate) from IAC were resolved on NuPAGE Novex Bis-Tris 10% gels (Thermo Fisher Scientific, Waltham, Mass.) under denaturing and reducing conditions (i.e., in the presence of dithiothreitol). […] Membranes were developed with Immobilon western HRP substrate (Merck Millipore, Darmstadt, Germany) and chemiluminescence recorded on a Chemidoc MP system (Bio-Rad). Throughout the purification process, total protein content was determined using a Bradford protein assay (Bio-Rad) and rhMSF specific titres were measured with an ELISA MSF assay made “in-house” as described below.

[4] = target: T1, biot-VSIPPRNLGY peptide …; test: indirect ELISA, peptide captured on NeutrAvidin, 1G5.3 at 10 ng/ml (FIG. 20A)
Description: FIG. 20. Indirect ELISA analysis of the interaction of mAb7.1 and 1G5.3 with biot-[…] and rhMSF. A) The biot-[…] peptide (SEQ ID NO:11) (spanning the aa 648-657 sequence at the C-terminus of human MSF) was captured onto Maxisorb plates that had been coated with NeutrAvidin. […] B) Maxisorb plates were coated with rhMSF, and incubated with mAb7.1 hybridoma cultures or purified 1G5.3. […] Wells containing NeutrAvidin (NeutrAvidin in A) or PBS−/− (PBS in B) only were taken as negative controls. Shown are plots from one out of two independent experiments, each performed in duplicate.
Nunc Maxisorb immunoplates were coated (0/N at 4° C.) with NeutrAvidin protein (1 μg/well; Thermo Scientific, Rockford, Ill., USA; Cat No: 31000) in PBS−/−. Biot-[…] (SEQ ID NO:11) peptide (100 μl/well, 10 μg/ml in PBS+/+ containing 0.05% (v/v) Tween 20, washing buffer) was added and captured on the NeutrAvidin layer for 1 h at room temperature; this allowed N→C orientation of the peptide, thus mimicking its topological organization in the context of the MSF protein [19]. Uncoated sites were blocked by incubation for 2 h at room temperature with 2% (w/v) bovine serum albumin (BSA, Sigma Aldrich; Cat No: A7030) in PBS+/+. […] Each sample was analyzed in duplicate and results were reported as mean±SD.

[5] = target: T4, recombinant human Migration Stimulating …; test: sandwich ELISA, 1G5.3-F(ab)′2 coated, rhMSF standard curve
Description: To measure MSF levels in biological fluids a sandwich ELISA has been developed. To this aim ELISA plates were incubated O/N at 4° C. with 250 ng/well of 1G5.3 or 500 ng/well of the 1G5.3-F(ab)′2 fragment diluted in PBS−/−, pH 7.0. After coating, plates were washed three times with 300 μl of washing buffer and then blocked with 5% dry milk for 2 h at 37° C. 100 μl of human plasma [informed consents were obtained] diluted 1/10 in washing buffer containing 2% Bovine Serum Albumin were then added and incubated for 1 h at room temperature. In the same plate a standard curve was generated using purified recombinant human MSF. After washing, plates were incubated with commercial biotinylated polyclonal Sheep IgG recognizing human hFn1 (0.25 μg/ml in washing buffer; R&D Cat No: BAF1918) for 1 h at room temperature. Finally, 100 μl of peroxidase-streptavidin (BioSpa Cat No: SB01-161) diluted 1/10000 in washing buffer were added and incubated 1 h at room temperature. Plates were then washed and incubated with 100 μl/well of the chromogenic substrate TMB before blocking with 2N H2SO4. Absorbance was read at 450 nm as described above. Linear regression was used to calculate MSF concentration in plasma samples from the standard curve made with recombinant MSF.
The 1G5.3-F(ab)′2 fragment was then tested in the sandwich ELISA following the same procedure outlined above. […]

T4 sequence (P02751 other isoform, or with tags, fused parts or gaps limits assumed): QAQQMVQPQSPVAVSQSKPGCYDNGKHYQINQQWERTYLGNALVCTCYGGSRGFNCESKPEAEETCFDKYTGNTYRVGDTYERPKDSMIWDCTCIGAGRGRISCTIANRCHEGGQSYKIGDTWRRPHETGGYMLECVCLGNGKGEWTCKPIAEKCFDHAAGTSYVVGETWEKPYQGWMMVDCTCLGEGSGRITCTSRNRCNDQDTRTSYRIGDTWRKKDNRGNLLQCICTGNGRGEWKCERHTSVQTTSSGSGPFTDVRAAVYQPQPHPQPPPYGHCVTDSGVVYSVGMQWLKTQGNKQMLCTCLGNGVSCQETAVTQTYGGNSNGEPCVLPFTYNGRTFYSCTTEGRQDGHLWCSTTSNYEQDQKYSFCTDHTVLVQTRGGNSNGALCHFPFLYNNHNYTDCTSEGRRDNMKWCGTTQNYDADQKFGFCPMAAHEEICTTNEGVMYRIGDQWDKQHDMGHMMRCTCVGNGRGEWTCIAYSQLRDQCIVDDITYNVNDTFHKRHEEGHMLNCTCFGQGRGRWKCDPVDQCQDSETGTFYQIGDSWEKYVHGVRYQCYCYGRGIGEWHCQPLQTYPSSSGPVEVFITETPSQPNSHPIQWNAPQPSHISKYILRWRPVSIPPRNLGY
T2 sequence (P02751 other isoform, or with tags, fused parts or gaps limits assumed): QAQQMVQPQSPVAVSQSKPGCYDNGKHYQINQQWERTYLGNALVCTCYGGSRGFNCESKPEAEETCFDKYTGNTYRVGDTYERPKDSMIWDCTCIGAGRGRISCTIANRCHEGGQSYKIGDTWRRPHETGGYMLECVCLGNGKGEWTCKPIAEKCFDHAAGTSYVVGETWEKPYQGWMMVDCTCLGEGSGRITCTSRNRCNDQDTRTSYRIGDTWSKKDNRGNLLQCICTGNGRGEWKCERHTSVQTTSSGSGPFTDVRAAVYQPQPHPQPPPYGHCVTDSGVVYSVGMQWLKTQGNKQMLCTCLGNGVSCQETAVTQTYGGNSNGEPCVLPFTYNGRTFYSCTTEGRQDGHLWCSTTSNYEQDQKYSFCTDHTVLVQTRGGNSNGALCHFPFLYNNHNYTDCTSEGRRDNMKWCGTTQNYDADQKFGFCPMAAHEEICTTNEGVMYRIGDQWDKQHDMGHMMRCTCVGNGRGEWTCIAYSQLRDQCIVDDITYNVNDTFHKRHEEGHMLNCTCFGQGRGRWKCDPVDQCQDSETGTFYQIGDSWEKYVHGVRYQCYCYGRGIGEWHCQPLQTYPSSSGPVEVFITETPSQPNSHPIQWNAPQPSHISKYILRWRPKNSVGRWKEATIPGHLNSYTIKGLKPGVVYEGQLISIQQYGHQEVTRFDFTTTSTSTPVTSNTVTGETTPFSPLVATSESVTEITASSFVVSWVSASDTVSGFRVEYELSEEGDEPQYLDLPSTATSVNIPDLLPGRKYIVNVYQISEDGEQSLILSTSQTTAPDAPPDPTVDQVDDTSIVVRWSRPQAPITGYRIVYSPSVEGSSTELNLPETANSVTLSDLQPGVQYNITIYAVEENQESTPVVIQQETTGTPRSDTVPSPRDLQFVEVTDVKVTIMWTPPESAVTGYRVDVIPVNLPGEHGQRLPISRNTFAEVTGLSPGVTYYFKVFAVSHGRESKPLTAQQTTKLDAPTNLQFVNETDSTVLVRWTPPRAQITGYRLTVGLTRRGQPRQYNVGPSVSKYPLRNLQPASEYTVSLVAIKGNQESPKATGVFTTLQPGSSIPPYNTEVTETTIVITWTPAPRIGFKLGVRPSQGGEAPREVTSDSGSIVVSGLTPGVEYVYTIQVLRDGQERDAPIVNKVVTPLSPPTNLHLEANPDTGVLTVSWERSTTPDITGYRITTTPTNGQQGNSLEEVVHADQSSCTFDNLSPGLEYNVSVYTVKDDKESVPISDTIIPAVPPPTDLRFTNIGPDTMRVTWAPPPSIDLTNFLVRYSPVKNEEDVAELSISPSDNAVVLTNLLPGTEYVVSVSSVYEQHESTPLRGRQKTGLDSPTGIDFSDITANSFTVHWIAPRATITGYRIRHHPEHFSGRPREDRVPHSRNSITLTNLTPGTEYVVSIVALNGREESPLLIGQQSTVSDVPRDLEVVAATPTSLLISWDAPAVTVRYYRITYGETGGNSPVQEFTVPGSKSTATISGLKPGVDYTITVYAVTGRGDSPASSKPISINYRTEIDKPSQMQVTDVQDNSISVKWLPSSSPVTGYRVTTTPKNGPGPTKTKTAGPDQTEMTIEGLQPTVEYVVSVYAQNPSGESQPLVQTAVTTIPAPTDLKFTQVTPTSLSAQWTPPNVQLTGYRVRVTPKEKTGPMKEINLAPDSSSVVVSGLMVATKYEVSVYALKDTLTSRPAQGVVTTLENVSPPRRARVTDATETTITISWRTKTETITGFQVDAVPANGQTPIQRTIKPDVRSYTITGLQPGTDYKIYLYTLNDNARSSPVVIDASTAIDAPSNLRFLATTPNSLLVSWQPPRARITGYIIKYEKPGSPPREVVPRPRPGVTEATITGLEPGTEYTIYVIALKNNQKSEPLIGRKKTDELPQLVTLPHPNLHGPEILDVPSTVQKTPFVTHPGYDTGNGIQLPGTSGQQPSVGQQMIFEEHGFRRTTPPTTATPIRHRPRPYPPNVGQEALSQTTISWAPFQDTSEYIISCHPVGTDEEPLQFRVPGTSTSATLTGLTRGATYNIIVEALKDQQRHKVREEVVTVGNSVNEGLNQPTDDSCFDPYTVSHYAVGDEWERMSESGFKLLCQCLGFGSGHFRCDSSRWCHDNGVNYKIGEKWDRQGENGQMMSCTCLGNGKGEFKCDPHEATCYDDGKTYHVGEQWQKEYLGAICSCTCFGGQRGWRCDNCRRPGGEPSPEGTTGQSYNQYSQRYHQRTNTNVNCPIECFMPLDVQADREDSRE

| binding result [2] | binding result [3] | binding result [4] | binding result [5] | Binder | binding result [1] |
| --- | --- | --- | --- | --- | --- |
| binds | binds | binds |  | monoclonal antibody 1G5.3 (antibody, mouse IgG1, kappa, V domains shown, Mouse IgG1, kappa; Used purified (Protein G) or as hybridoma supernatant; also called mAb 1G5.3; 1G5.3 mAb) VH: EVKIEESGGGLVQPGGSMKLSCVASGFTFSNDWMNWVRQSPEKGLEWVAEIRMKSDNYATYYAESVKGRFTISRDDSKNSVYLQMNNLRAEDNGIYYCTSWDYWGQGTTLTVSS VL: DIVMSQSPSSLAVSTGEKVTMNCRSSHYLLNSRTRKNFLSWYQQKPGQSPQLLIYWASTRYSGVPDRFTGSGSGTDFTLTISSVQAEDLAVYYCKQSYNLHTFGGGTKLEIKR | no binding (tested: 10 µg/ml to 0.005 ng/ml of 1G5.3) |
|  |  |  | binds | 1G5.3-F(ab)′2 fragment (other, not shown: a dimerising Fc or GST, Made from purified 1G5.3 by pepsin digestion; 110 kDa non-reduced; also called anti-human MSF 1G5.3 F(ab)′2 fragment) heavy: EVKIEESGGGLVQPGGSMKLSCVASGFTFSNDWMNWVRQSPEKGLEWVAEIRMKSDNYATYYAESVKGRFTISRDDSKNSVYLQMNNLRAEDNGIYYCTSWDYWGQGTTLTVSS light: DIVMSQSPSSLAVSTGEKVTMNCRSSHYLLNSRTRKNFLSWYQQKPGQSPQLLIYWASTRYSGVPDRFTGSGSGTDFTLTISSVQAEDLAVYYCKQSYNLHTFGGGTKLEIKRADAAPTVSIFPPSSEQLTSGGASVVCFLNNFYPKDINVKWKIDGSERQNGVLNSWTDQDSKDSTYSMSSTLTLTKDEYERHNSYTCEATHKTSTSPIVKSFNRNEC |  |
